Test results from US20180368743, “GRAPHENE-BASED NANOSENSOR FOR IDENTIFYING TARGET ANALYTES” (THE TRUSTEES OF COLUMBIA UNIVERSITY IN THE CITY OF NEW NEW …, published 2018).

Columns and labels:
Details in all cases: G4
[1] = biological target: Insulin (Homo sapiens, UniProt P01308;P01308 P01308:25-54,P01308:90-110); assay: graphene FET, PBS pH 7.4, Hill-Langmuir fit of Dirac voltage shift
Method: The nanosensor insulin measuring capabilities were subsequently tested in PBS buffer. Insulin solutions of increasing concentrations from 100 pM to […] were sequentially introduced to the PDMS chamber of the nanosensor. The binding of insulin to the IGA3 aptamer was allowed to reach equilibrium before the replenishment of sample solutions.
The binding of insulin and aptamer was allowed to reach equilibrium for 10 min before the replenishment of higher concentration insulin solution. Thus, the dipping time of graphene in solutions was increased with the ongoing experiment. The slight decrease in the minimum of Ids (Ids,min,) in the transfer characteristic curve, observed in FIG. 99A was considered as a result of the increase in the ionic strength caused by the evaporation of PBS buffer (150 mM NaCl) with increasing dipping time.
Further, the equilibrium dissociation constant (KD) for the IGA3 aptamer and insulin with different VDirac at corresponding insulin concentrations was evaluated using the aptamer-functionalized GFETs. […] The change in VDirac, denoted as ΔVDirac, is plotted as a function of insulin concentrations with error bars obtained from three different devices (FIG. 99B).

[2] = biological target: T1, Somatostatin (Homo sapiens, UniProt P61278 P61278:103-116); assay: graphene FET current change <1.3% at up to 1 uM vs 8.5% for insulin; normalized response <0.192
T1 chain: AGCKNFFWKTFTSC
Method: (§1) To examine the specificity of the nanosensor to insulin over other related analogues that might interfere with the detection of insulin, glucagon and somatostatin, which were secreted by the pancreatic islet alpha and delta cells, respectively, were evaluated as negative control analytes. This is because glucagon [molecular weight (MW): 3.5 kD, PI: 6.2], promoting […] by the liver and together with somatostatin (MW: 1.63 kD, PI: 5.6) regulating the secretion of insulin, share similar physical properties with insulin, which can affect the sensing performance. The functionalized graphene nanosensor was first exposed to somatostatin solutions prior to the introduction of insulin. The change in Ids, denoted as ΔIds, was recorded throughout the experiment and compared as the response of the aptameric nanosensor to the given solutions. To minimize errors caused by device-to-device nonuniformity, the time-resolved selective response as the ratio of ΔIds to ΔIds,max (the maximum value of ΔIds) was calculated:
where Ids,PBS is the Ids measured in fresh PBS buffer. […] On the contrary, the calculated ΔIds/ΔIds,max value increased and reached 1.0 at […] insulin with stepwise increments in the insulin concentration (FIG. 101A).
Additionally, a similar real-time monitoring control experiment was conducted with glucagon (FIG. 107). […]

[3] = biological target: Glucagon (Homo sapiens, UniProt P01275 P01275:53-81); assay: graphene FET current change <1.3% at up to 1 uM vs 8.5% for insulin
Chain of Glucagon (P01275 53-81, one chain of several): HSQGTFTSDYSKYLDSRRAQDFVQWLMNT
Method: as §1
Additionally, a similar real-time monitoring control experiment was conducted with glucagon (FIG. 107). […] Here, ΔIds,S(C)=Ids,S(C)−Ids,PBS, where Ids,S(C) is the Ids measured at the binding equilibrium for given solutions (insulin/glucagon/somatostatin) at representative tested concentrations.

Chain of Insulin (P01308 25-54, chain 1 of 2): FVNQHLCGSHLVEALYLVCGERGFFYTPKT
Chain of Insulin (P01308 90-110, chain 2 of 2): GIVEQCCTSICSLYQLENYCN

**Q.** For GGTGGTGGGGGGGGTTGGTAGGGTGTCTTC (ssDNA, 5'-NH2 (coupled to PASE on graphene)) [IGA3 insulin aptamer], which Kd [1] is on record?
**A.** Its Kd is 35 nM.

**Q.** Does GGTGGTGGGGGGGGTTGGTAGGGTGTCTTC (ssDNA, 5'-NH2 (coupled to PASE on graphene)) [IGA3 insulin aptamer] bind [2]?
**A.** Result: no binding

**Q.** Does GGTGGTGGGGGGGGTTGGTAGGGTGTCTTC (ssDNA, 5'-NH2 (coupled to PASE on graphene)) [IGA3 insulin aptamer] bind [3]?
**A.** Result: no binding
